Measured values: patent US20240425603A1 (Janssen / Centocor, published 2024)

T1: murine VEGFR1, over-expressed on cells (mouse, UniProt P35969 23-1333)
T1 construct: whole, on cells; also called mouse VEGFR1
T1 sequence (looked up): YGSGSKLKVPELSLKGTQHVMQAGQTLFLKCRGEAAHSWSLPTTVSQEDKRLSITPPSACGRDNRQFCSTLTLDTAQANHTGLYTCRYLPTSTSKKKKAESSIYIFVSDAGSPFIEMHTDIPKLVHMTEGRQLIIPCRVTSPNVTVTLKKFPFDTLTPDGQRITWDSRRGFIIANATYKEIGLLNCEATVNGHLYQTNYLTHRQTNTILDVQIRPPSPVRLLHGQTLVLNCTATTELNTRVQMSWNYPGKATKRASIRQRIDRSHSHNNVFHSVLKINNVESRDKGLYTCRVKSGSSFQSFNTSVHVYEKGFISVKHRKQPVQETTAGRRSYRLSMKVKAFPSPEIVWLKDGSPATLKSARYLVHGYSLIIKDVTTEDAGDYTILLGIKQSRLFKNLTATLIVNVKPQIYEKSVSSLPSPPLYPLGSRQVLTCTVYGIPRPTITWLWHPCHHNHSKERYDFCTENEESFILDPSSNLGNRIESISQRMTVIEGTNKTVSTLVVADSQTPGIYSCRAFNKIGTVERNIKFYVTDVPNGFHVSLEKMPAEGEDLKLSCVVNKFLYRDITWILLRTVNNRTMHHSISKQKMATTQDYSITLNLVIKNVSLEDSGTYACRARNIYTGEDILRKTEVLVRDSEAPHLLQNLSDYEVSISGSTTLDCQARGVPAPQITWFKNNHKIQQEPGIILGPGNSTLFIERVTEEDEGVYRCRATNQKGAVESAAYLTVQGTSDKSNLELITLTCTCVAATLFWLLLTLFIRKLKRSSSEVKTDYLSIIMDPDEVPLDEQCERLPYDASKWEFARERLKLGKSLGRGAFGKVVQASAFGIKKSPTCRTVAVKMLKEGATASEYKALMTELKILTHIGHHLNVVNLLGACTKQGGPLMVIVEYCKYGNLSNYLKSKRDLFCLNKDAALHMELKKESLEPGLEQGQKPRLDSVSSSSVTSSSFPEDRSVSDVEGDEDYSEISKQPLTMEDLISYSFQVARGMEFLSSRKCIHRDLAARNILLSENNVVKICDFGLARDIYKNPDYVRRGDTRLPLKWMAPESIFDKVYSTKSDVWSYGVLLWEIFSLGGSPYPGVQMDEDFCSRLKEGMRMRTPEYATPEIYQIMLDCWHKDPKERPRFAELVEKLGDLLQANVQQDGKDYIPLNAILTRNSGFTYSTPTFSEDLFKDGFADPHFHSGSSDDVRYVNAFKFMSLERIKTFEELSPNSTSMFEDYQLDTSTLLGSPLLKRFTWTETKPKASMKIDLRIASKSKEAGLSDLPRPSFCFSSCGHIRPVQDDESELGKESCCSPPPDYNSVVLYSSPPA

B1: VGFB71 (antibody, human IgG1, lambda, L234A L235A, V domains shown)
VH: EVQLLESGGGLVQPGGSLRLSCEASGFIFRDYNMNWVRQAPGKGLEWVSIITNDGSSTAYSDSVKGRFTISRDNSKNSLYLQMNSLRAEDTAIYYCVKVYYGMDDWGQGTTVTVSS
VL: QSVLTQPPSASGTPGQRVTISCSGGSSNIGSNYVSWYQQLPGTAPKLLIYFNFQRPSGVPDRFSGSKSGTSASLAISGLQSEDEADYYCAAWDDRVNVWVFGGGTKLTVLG
notes: human IgG1 (L234A/L235A/D265S)
B2: VGFB54 (antibody, human IgG1, lambda, L234A L235A, V domains shown)
VH: EVQLLESGGGSVQPGGSLRLSCTASGFNFEDYGMNWVRQAPGKGLDWVSSINRNGDISTYHVDSVKGRFTISRDNSKNTLYLQMNSLRAEDTAIYYCTKNHDYHGMDVWGQGTTVTVSS
VL: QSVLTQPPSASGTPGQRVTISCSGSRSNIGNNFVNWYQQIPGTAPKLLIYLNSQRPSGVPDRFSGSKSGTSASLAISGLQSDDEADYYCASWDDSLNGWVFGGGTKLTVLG
notes: human IgG1 (L234A/L235A/D265S), lambda, 2H:2L; from OmniChicken

Key:
[1] = target: T1, murine VEGFR1, over-expressed on cells; experiment: FACS cell binding (MFI) on HEK cells over-expressing murine VEGFR1; expanded clone supernatant per paragraph 492, concentration not given
Summary of the method: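 Flow cytometry was used to measure binding of culture supernatants to HEK cells over-expressing mouse VEGFR1 or human VEGFR2 and to K562 cells over-expressing human VEGFR3. The supernatants came from chicken-derived clones expressed as scFv-Fc (human IgG1) by transient transfection and expanded to 6-well plates (2 mL). Binding is reported as mean fluorescence intensity.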

[2] = target: T2, Recombinant human VEGFR1-Fc (R&D Systems) (human, UniProt P17948 27-687, limits assumed); experiment: biochemical ligand blocking assay; ligand and receptor form not given
T2 construct: bought; not shown: Fc part of the bought fusion, not described
T2 sequence (P17948 27-687 limits assumed): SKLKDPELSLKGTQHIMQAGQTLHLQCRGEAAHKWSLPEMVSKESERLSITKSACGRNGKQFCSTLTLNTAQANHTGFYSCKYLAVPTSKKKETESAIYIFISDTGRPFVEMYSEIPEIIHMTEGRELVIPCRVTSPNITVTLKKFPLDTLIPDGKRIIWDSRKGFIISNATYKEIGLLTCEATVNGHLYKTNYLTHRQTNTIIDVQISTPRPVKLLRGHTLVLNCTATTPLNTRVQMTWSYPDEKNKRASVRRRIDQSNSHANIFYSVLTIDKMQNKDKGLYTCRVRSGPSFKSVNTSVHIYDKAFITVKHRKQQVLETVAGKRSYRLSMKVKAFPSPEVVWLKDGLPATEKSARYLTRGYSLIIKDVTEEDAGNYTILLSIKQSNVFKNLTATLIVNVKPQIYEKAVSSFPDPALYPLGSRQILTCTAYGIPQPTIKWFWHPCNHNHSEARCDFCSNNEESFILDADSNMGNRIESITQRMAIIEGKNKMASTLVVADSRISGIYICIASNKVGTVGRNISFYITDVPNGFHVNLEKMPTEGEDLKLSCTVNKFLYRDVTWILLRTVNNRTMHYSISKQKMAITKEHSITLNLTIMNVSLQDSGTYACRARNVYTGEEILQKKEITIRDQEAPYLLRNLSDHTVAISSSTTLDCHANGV
Summary of the method: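 In a biochemical electro-chemiluminescence ligand blocking assay, Protein A/G-coated MSD plates captured recombinant VEGFR1-Fc, which was pre-incubated with half-log dilutions of each antibody for 30 minutes. Biotinylated ligand was added next and detected with Sulfo-tagged streptavidin on an MSD imager. The readings were used to calculate IC50.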

[3] = target: T3, human VEGFR1, full length, over-expressed on cells (human, UniProt P17948 27-1338); experiment: cell binding assay (column head prints IC50)
T3 construct: on CHO-K1 or HEK cells; also called hVEGFR1; CHOK1/ human VEGFR1
T3 sequence (P17948 27-1338 limits assumed): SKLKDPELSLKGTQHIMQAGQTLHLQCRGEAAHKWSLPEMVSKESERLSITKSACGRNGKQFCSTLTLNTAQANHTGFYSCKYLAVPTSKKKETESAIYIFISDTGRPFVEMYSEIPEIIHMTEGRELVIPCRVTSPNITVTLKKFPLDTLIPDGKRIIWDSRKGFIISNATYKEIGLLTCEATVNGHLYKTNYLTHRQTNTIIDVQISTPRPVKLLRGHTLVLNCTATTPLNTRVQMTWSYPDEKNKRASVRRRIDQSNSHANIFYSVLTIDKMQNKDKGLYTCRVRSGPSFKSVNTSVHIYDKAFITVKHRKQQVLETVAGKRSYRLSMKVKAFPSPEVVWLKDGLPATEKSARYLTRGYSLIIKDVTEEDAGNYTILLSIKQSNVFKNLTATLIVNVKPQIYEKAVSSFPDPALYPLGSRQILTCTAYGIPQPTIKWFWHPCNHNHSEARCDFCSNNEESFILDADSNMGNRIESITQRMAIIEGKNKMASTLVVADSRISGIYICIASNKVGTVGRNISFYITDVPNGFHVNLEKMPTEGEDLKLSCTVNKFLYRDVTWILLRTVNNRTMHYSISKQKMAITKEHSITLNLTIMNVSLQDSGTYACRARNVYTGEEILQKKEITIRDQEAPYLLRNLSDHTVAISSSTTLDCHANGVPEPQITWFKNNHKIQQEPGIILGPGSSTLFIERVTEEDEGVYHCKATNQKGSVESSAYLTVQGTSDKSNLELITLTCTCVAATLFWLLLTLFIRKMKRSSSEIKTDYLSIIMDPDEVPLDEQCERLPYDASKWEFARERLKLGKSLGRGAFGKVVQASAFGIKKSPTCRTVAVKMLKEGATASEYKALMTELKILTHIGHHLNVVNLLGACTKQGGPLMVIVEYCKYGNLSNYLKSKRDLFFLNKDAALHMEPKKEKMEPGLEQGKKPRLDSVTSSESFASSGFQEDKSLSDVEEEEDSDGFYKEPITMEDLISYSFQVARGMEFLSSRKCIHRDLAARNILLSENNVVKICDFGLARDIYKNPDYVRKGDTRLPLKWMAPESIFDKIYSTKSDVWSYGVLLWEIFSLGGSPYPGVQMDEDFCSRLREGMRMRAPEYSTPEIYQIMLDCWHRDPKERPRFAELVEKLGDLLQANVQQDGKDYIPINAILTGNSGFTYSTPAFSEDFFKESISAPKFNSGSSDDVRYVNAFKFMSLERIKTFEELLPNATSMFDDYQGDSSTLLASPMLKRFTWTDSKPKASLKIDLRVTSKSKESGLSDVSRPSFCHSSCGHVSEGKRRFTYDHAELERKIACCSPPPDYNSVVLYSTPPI

Binder	binding result [1]	IC50 [2] [nM]	IC50 [3] [nM]
B1	binds	–	–
B2	–	0.0894	0.198
